pKd: −log10 of the molar value.
Assays:
Experiment in all cases: IEDB peptide-MHC binding, purified MHC/competitive/radioactivity; filed as Kd, often an IC50 or EC50 that approximates it; ≥ and ≤ were set here for values at or beyond the usual limits of such assays
HLA-A*02:02 = molecular target: HLA-A*02:02
HLA-A*02:03 = molecular target: HLA-A*02:03
HLA-A*02:06 = molecular target: HLA-A*02:06
[1] = source organism: Vaccinia virus WR
[2] = source organism: SARS coronavirus Tor2
[3] = source organism: Lymphocytic choriomeningitis virus (strain Armstrong)
[4] = source organism: Dengue virus 4 Philippines/H241/1956
[5] = source organism: Vaccinia virus Copenhagen
[6] = source organism: Mammarenavirus whitewaterense
[7] = source organism: Mammarenavirus tacaribeense

Sequence	pKd (HLA-A*02:02; [1])	pKd (HLA-A*02:03; [1])	pKd (HLA-A*02:06; [1])	other results
AILHNIYRL	6.97	6.09	7.36	–
ALKNSQAEL	7.15	7.77	≤ 4.48	–
ALTDVEKRIL	7.01	6.90	6.03	–
ALWDSNFFT	5.97	≤ 4.55	≤ 4.64	–
ATCALVSDCA	≤ 4.46	≤ 4.63	5.04	–
CVSNLDISSV	7.29	8.64	7.32	–
DIIDLLLPST	4.84	5.18	6.55	–
DIKYISRDEL	5.59	5.02	5.69	–
DITNILGGVL	4.91	5.43	4.72	–
DVQRTRCKYV	5.97	5.19	5.02	–
EIDVSEVKT	≤ 4.34	≤ 4.11	≤ 4.11	–
ELEKCTSEI	≤ 4.68	≤ 4.25	≤ 4.24	–
ELVMDKNHAI	4.85	≤ 4.15	≤ 4.16	–
EMQLKIDKLT	5.02	5.17	≤ 4.16	–
EMVEYLENQL	6.67	6.68	6.38	–
ETIQKDINI	≤ 4.44	≤ 4.29	≤ 4.46	–
FLCLFLLPSL	–	–	–	pKd (HLA-A*02:02; [2]): 9.27; pKd (HLA-A*02:03; [2]): 8.54; pKd (HLA-A*02:06; [2]): 9.43
FLNRFTTTL	–	–	–	pKd (HLA-A*02:02; [2]): 9.18; pKd (HLA-A*02:03; [2]): 8.99; pKd (HLA-A*02:06; [2]): 7.24
FLYIIKLVFL	–	–	–	pKd (HLA-A*02:02; [2]): 8.14; pKd (HLA-A*02:03; [2]): 7.65; pKd (HLA-A*02:06; [2]): 6.06
FMECNLNELV	–	–	–	pKd (HLA-A*02:03; source organism: Homo sapiens): 7.15
FSLGAAVKA	–	–	–	pKd (HLA-A*02:02; [3]): 5.19; pKd (HLA-A*02:03; [3]): 4.88; pKd (HLA-A*02:06; [3]): 6.49
FTILEYLYIM	6.45	5.49	7.39	–
FVATFRDMLL	9.16	7.75	8.36	–
GIKGLDERFV	5.21	6.07	6.03	–
GLYIPGTSV	6.95	7.78	5.76	–
GVSGLYIPGT	6.85	5.67	7.50	–
ILNAHEDGV	–	–	–	pKd (HLA-A*02:03; [4]): 7.03

Sequence	pKd (HLA-A*02:02; [1])	pKd (HLA-A*02:03; [1])	pKd (HLA-A*02:06; [1])	other results
IMEIVSHLRA	6.02	6.40	5.36	–
IMRNFLRSIA	7.22	6.91	6.26	–
KIDILQMREI	5.89	6.38	6.06	–
KINNNRIVAM	5.04	5.89	5.50	–
KIQLFSDFTI	≤ 4.15	≤ 4.15	≤ 4.16	–
KMFESTYRGA	–	–	–	pKd (HLA-A*02:03; source organism: Dengue virus 4 Dominica/814669/1981): 7.98
KVTVPTNDHI	5.33	5.91	5.44	–
LAYYNSCMLT	7.92	7.80	7.06	–
LIAGIILLIL	–	–	–	pKd (HLA-A*02:02; [5]): 6.85; pKd (HLA-A*02:03; [5]): 6.17; pKd (HLA-A*02:06; [5]): 6.46
LIASLVMLLV	–	–	–	pKd (HLA-A*02:03; [4]): 7.19
LMELPVKTDI	5.82	6.01	4.89	–
LNASYITPYV	–	–	–	pKd (HLA-A*02:02; [6]): 7.48; pKd (HLA-A*02:03; [6]): 5.97; pKd (HLA-A*02:06; [6]): 7.42
LTNAISSRV	6.84	7.73	6.84	–
MLIIFWFSL	–	–	–	pKd (HLA-A*02:02; [2]): 6.88; pKd (HLA-A*02:03; [2]): 4.89; pKd (HLA-A*02:06; [2]): 6.31
MNNVVQALT	–	–	–	pKd (HLA-A*02:02; [7]): 5.64; pKd (HLA-A*02:03; [7]): ≤ 4.67; pKd (HLA-A*02:06; [7]): ≤ 4.11
MVMCGGSLYV	–	–	–	pKd (HLA-A*02:02; [2]): 7.82; pKd (HLA-A*02:03; [2]): 7.99; pKd (HLA-A*02:06; [2]): 7.88
NILGGVLHT	≤ 4.11	≤ 4.69	5.00	–
NITHTNITTL	4.98	5.30	5.09	–
NIYRLFTRCA	5.00	6.86	7.64	–
NLETYTRPEI	6.27	5.82	6.20	–
NLLEQLIENI	6.08	5.84	6.40	–
NQAAVLMGL	–	–	–	pKd (HLA-A*02:06; [4]): 8.16
NTISGNIYSA	6.57	6.50	6.41	–
NVDVGCLLT	5.01	4.85	≤ 4.19	–
NVIGLIVIL	7.07	5.62	7.82	–
NVQSLIKFI	4.89	5.22	4.98	–
NVSRVVECLT	5.33	4.84	≤ 5.00	–

Reference: the Immune Epitope Database (IEDB)
